According to the supplement of paper PMC9170038:

Tests used:
[1] = tested on: K4 kissing-loop RNA reporter; assay: apparent KD of K4 kissing-loop reporter; higher = weaker reporter binding; conditions: Eterna round: R107;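 also: bound reporter read as fluorescence of individual clusters on recovered sequencing chips by microscopy, with normalized cluster intensities fitted with a binding model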
Protocol: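 RNA-MaP round R107: designed RNA switches with theophylline, tryptophan, arginine or FMN aptamers are transcribed on-chip within common flanks. They are titrated with a labelled K4 kissing-loop RNA reporter in RNA-MaP buffer (100 mM Tris pH 7.5, 80 mM KCl, 4 mM MgCl2), without ligand or with the indicated ligand. Median apparent KD per design.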

[2] = tested on: MS2 coat protein; assay: apparent KD of MS2 coat protein; designed switch direction (-1 OFF switch, 1 ON switch): -1; higher = weaker reporter binding
How it was run: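 An oligonucleotide input, 200 uM small-molecule ligand, or no input was present during titration of SNAP-549-labelled MS2 coat protein, which was doubled from 0.7 or 1.5 nM to 3 µM. Designed RNA switches had been transcribed on Illumina chips by stalled E. coli RNA polymerase. Apparent KD per design is the median over clusters of curves fitted to normalised cluster fluorescence.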

[3] = input ligand: theophylline 20 uM
[4] = input ligand: tryptophan 2.4 mM
[5] = Eterna round: R95, input ligand: microRNA oligo, concentration not stated
[6] = Eterna round: R95, input ligand: FMN 200 uM
[7] = Eterna round: R95, input ligand: none
[8] = input ligand: microRNA oligo, concentration not stated

Sequence	apparent KD of K4 kissing-loop reporter ([1]; input ligand: FMN 200 uM)	apparent KD of K4 kissing-loop reporter ([1]; input ligand: arginine 13.2 mM)	apparent KD of K4 kissing-loop reporter ([1]; input ligand: none)	apparent KD of K4 kissing-loop reporter [1, 3]	apparent KD of K4 kissing-loop reporter [1, 4]	apparent KD of MS2 coat protein [2, 5]	further results
AACUGCUAAGAGGUUAAGCACGUCAUUAUGAAGGAUAUAGAAUUCACUAGAAGGUCAUGUGCCCUGAGUGAUGUUCAGAUAGGCG [theeternabot_sameState_KL_FMN_A_25]	294 nM	229 nM	236 nM	421 nM	336 nM	–	–
AACUGUCAAGGCCAACAUUACUGAGGUGAUACCAGCAUCGAAAGAUGCCCUUGGCAGCACCAACUUGCAGUGAUGUUGCAAGUAA [BrourdMod 13 - Jieux - Exclusion - Theophylline A]	231 nM	203 nM	234 nM	307 nM	225 nM	–	–
AAGAAUAAUCUUGCAGUGAUGUUGCAAGAUACCAGCAUCGAAAGAUGCCCUUGGCAGCUUGAAAACAUCACUAUCAAGCUGCAUA [Design2]	620 nM	452 nM	664 nM	552 nM	558 nM	–	–
AAGCAGUCACGCGAAGCCAUCGAAGAUGGACGAGGACCGGUACGGCCGCCACUCGGAGUGAUGUUCCGAAGACUGCAAAAUAAAA	515 nM	499 nM	420 nM	599 nM	363 nM	–	–
AAGCAGUCACUCGAAUCCAUCGAAGAUGGGCGAGGACCGGUACGGCCGCCACUCGGAGUGAUGUUCCGCAGACUGCAAAAUAAAA	636 nM	402 nM	863 nM	580 nM	478 nM	–	–
AAGCAGUCCCUUGUUGUCAUCGAAGAUGAACGAGGACCGGUACGGCCGCCACUCGGAGUGAUGUUCCGAAGGCUGCAAAAUAAAA [MatMod 20 - Jieux - Exclusion - Tryptophan A]	109 nM	112 nM	116 nM	115 nM	205 nM	–	–
AAGCGUAAAAUGGCGGACAUACUGCUCCCACGAGGACCGGUACGGCCGCCACUCGAAUGCGGCAGUGAUGUUGCCGCCUUAGCGU [KL-XTryp-A19]	84.6 nM	77.5 nM	79.1 nM	75.2 nM	76.1 nM	–	–
AAGCGUGUGGCGGCCGCCACUAGUCUCCAGUGAUGUUGGAGAGAUCACGUAAGUGAUCUCCGACAUAGGACCGGGCCAUAUGGAA [Same State - Tryptophan B (Freestyle 23)]	69.1 nM	125 nM	186 nM	443 nM	214 nM	–	–
AAGGGCGGAACUUCCUCGCCGGAUAGAGAUACCAGCCCAGCAAAGGGCCCUUGGCAGCUCACUGACCUCAGUGAUGUUGAGGUUC [Riesrevere]	345 nM	241 nM	301 nM	216 nM	296 nM	–	–
UUUUAACAUGAGGAUCACCCAUGUGAGGAUAUCGAAAUUUAUAUUUAUAUUAAUUUAUCGAGAAGGCACAUUUU [JMF 88] (puzzle: Exclusion 1)	–	–	–	–	–	166 nM	–
UUUUACCAAGGAUAUACAUUUUUUUUAUUAUUUUCAUUAUAACAUGAGGAUCACCCAUGUAGAAGGUGGAUUUU [My Design] (puzzle: Exclusion 2)	–	–	–	–	–	59.6 nM	–
UUUUACGAAGGAUAUACAUUUUUUUUAUUAUUUUCAUUAUUACAUGAGGAUCACCCAUGUAGAAGGUCGAUUUU [My Design] (puzzle: Exclusion 2)	–	–	–	–	–	27.7 nM	–
UUUUAGAGAGGAUAUAUAAUGUGAAACAUGAGGAUCACCCAUGUAAUAUUAUGGAUGUAAAUAGAAGGCUCAAUUA [Mat - Exclusion 5 - JL mod - D13] (puzzle: Exclusion 5)	–	–	–	–	–	30.4 nM	apparent KD of MS2 coat protein [2, 6]: 28.5 nM; apparent KD of MS2 coat protein [2, 7]: 26.3 nM
UUUUAGUCAGGAUAUACAUUUUUUUAUUUAUUUAUAAUAUUACAUGAGGAUCACCCAUGUAGAAGGGACAUUUU [My Design] (puzzle: Exclusion 2)	–	–	–	–	–	29.6 nM	–
UUUUCAUAUGAAGGAUAUACUUAACAUGAGGAUCACCCAUGUGGUGUUGUGAGUGAGUGAGUUUAGUAGAAGGUCAAGUAUUUU [JMF's solution 48] (Eterna round: R96, puzzle: Exclusion NG 2)	–	–	–	–	–	–	apparent KD of MS2 coat protein ([2]; input ligand: FMN 200 uM): 805 nM; apparent KD of MS2 coat protein [2, 8]: 304 nM; apparent KD of MS2 coat protein ([2]; input ligand: none): 304 nM
UUUUCUUUUGUGAGGAUAUACUUCUUUUUUUUUUUGUAGAAGGCACAUGAGGAUCACCCAUGUUUUCUUUUCUG [JR_BME4_Sub027] (puzzle: Brourd's mod of Exclusion 4)	–	–	–	–	–	22.1 nM	–
UUUUGGCAUGUAGGAUAUGGGUCCGAUUAGGAUUUAGAAGGACAUGAGGAUCACCCAUGUGCAUUUAAUUGGUCUUUUUUUUUU [EXclNG1-LROPPY15] (Eterna round: R96, puzzle: Exclusion NG 1)	–	–	–	–	–	–	apparent KD of MS2 coat protein [2, 8]: 80 nM
UUUUUAUAUGAAGGAUAUACUUAACAUGAGGAUCACCCAUGUGGUGUUGUGAGUGAGUGAGUUUAGUAGAAGGUCAAUUAUUGU [JMF's solution 16] (Eterna round: R96, puzzle: Exclusion NG 2)	–	–	–	–	–	–	apparent KD of MS2 coat protein ([2]; input ligand: FMN 200 uM): 2260 nM; apparent KD of MS2 coat protein [2, 8]: 155 nM; apparent KD of MS2 coat protein ([2]; input ligand: none): 394 nM
UUUUUAUUUUUUUAUUUUGACAUGAGGAUCACCCAUGUAACGAGCAGAUCUUCAUGCAAGCUUUUUGCUCGUCUUAU [Sensor v3 - Turn-off variant 1 - 41] (puzzle: Sensor v3, turn-off variant 1)	–	–	–	–	–	15.5 nM	apparent KD of MS2 coat protein [2, 6]: 69.1 nM; apparent KD of MS2 coat protein [2, 7]: 95.6 nM
UUUUUCUGUGUGAGGAUAUACUUUGUUUGGUCGUUGUAGAAGGCACAUGAGGAUCACCCAUGUAGUUUGUUGUG [JR_BME4_Sub013] (puzzle: Brourd's mod of Exclusion 4)	–	–	–	–	–	23 nM	–
UUUUUGUGAGGAUAUCAGUAGUAAAAUAAAUAAAUUACUACUGAGAAGGCACAUGAGGAUCACCCAUGUUCCUU [Mat - Exclusion 4 - Mod of Salish - D66] (puzzle: Exclusion 4)	–	–	–	–	–	13.7 nM	–
UUUUUUGUAGUGAGGAUAUCGUUGAGGAUGUGGAUCGAGAAGGCACAUGAGGAUCACCCAUGUUAGAUGUGGUU [JR_BMOE4_Sub083] (Eterna round: R96, puzzle: Brourd's mod of Exclusion 4)	–	–	–	–	–	–	apparent KD of MS2 coat protein ([2]; input ligand: FMN 200 uM): 363 nM; apparent KD of MS2 coat protein [2, 8]: 134 nM; apparent KD of MS2 coat protein ([2]; input ligand: none): 166 nM
UUUUUUGUAGUGAGGAUAUCGUUGAGGAUGUGGAUCGAGAAGGCACAUGAGGAUCACCCAUGUUAGAUGUGGUU [JR_BMOE4_Sub083] (puzzle: Brourd's mod of Exclusion 4)	–	–	–	–	–	173 nM	–
